Literature values, collected in publication PMC5371383.

Tests used:
[1] = biological target: MC1R (Gallus gallus) (UniProt P55167)
[2] = biological target: MC1R (Homo sapiens) (UniProt Q01726)
UniProt Q01726, sequence (Q01726 whole entry): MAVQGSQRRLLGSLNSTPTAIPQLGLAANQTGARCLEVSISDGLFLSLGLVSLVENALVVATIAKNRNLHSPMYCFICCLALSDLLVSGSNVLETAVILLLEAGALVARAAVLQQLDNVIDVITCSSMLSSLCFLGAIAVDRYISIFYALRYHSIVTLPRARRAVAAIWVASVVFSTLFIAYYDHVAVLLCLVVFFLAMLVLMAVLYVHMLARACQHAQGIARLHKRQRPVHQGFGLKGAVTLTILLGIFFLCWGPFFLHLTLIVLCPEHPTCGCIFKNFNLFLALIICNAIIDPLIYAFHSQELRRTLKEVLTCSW

UniProt P55167, sequence (P55167 whole entry): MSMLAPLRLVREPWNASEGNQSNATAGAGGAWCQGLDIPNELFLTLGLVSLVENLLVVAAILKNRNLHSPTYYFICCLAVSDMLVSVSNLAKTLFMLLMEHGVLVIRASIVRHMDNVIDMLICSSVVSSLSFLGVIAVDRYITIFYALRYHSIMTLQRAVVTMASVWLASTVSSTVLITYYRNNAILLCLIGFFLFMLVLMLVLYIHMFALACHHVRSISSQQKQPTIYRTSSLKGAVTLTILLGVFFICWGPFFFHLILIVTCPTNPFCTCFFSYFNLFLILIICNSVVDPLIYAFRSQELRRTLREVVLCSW

Kd [1]: 363 nM
Kd [2]: 0.21 nM
Substance: α-MSH (from UniProt P01189)
